# Measurements published in PMC10700182, “A Bacterial Quorum Sensing Regulated Protease Inhibits Host Immune Responses by Cleaving Death Domains of Innate Immune Adaptors” (Advanced Science, 2023).
# B1: Myd88 DD^20-117-SNAP (domain or fragment)
# chain: LPLAALNMRVRRRLSLFLNVRTQVAADWTALAEEMDFEYLEIRQLETQADPTGRLLDAWQGRPGASVGRLLELLTKLGRDDVLLELGPSIEEDCQKYI
# modifications: benzylguanine dye (BG-647 or BG-488, AlexaFluor) on the SNAP tag
# notes: also called MyD88 Death domain; MyD88 DD SNAP; source: E. coli BL21(DE3), purified (Ni-NTA agarose)
# Molecular target: the molecule itself
# Assay: native gel or EMSA
protein,measurement,value
B1,binding result,binds
